B1: Mothers against decapentaplegic homolog 4 (Homo sapiens), Q13485 (parent)
chain: MDNMSITNTPTSNDACLSIVHSLMCHRQGGESETFAKRAIESLVKKLKEKKDELDSLITAITTNGAHPSKCVTIQRTLDGRLQVAGRKGFPHVIYARLWRWPDLHKNELKHVKYCQYAFDLKCDSVCVNPYHYERVVSPGIDLSGLTLQSNAPSSMMVKDEYVHDFEGQPSLSTEGHSIQTIQHPPSNRASTETYSTPALLAPSESNATSTANFPNIPVASTSQPASILGGSHSEGLLQIASGPQPGQQQNGFTGQPATYHHNSTTTWTGSRTAPYTPNLPHHQNGHLQHHPPMPPHPGHYWPVHNELAFQPPISNHPAPEYWCSIAYFEMDVQVGETFKVPSSCPIVTVDGYVDPSGGDRFCLGQLSNVHRTEAIERARLHIGKGVQLECKGEGDVWVRCLSDHAVFVQSYYLDREAGRAPGDAVHKIYPSAYIKVFDLRQCHRQMQQQAATAQAAAAAQAAAVAGNIPGPGSVGGIAPAISLSAAAGIGVDDLRRLCILRMSFVKGWGPDYPRQSIKETPCWIEIHLHRALQLLDEVLHTMPIADPQPLD
partner: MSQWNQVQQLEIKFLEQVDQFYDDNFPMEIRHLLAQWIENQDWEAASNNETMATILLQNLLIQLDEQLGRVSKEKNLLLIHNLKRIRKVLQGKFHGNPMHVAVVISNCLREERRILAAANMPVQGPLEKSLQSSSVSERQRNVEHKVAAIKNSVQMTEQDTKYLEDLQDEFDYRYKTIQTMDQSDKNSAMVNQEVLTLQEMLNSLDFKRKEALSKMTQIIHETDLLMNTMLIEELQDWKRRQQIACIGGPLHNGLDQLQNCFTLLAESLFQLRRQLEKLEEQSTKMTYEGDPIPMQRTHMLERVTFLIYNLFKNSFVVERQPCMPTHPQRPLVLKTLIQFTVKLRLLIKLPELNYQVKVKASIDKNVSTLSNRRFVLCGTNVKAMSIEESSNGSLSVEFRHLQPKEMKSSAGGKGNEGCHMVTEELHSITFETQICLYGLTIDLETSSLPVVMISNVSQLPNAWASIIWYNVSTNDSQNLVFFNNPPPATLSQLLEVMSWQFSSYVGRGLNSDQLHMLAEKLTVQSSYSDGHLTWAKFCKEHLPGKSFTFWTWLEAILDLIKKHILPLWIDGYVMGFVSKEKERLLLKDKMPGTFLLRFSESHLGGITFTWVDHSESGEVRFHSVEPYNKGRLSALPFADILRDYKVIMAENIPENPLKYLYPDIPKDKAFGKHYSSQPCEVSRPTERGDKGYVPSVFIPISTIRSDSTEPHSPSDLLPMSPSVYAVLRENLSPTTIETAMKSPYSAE
B2: Mothers against decapentaplegic homolog 4 (Homo sapiens), Q13485 (parent)
chain: B1 chain
partner: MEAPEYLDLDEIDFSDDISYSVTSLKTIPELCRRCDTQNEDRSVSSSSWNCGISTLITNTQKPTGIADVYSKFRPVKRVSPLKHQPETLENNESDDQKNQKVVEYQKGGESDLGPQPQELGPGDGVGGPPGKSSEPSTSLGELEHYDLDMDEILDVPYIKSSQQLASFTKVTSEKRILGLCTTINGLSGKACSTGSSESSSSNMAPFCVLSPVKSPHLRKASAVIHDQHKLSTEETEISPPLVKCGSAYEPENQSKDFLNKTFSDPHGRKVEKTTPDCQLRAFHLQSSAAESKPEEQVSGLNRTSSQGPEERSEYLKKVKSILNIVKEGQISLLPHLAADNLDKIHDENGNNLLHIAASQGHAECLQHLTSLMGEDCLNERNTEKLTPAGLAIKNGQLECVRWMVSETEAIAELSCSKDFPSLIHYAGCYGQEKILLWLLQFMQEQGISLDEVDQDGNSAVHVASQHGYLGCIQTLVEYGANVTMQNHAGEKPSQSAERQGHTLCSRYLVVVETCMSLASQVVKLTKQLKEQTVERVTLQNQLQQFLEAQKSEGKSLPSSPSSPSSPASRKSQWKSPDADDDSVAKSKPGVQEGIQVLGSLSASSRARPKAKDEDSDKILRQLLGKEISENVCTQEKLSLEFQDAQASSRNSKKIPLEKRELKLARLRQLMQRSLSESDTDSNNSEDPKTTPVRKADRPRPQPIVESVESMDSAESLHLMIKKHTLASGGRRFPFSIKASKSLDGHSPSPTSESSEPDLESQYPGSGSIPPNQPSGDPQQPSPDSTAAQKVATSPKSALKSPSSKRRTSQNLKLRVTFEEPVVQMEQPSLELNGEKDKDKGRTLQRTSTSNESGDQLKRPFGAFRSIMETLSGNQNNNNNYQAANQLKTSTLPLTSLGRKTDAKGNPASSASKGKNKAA
B3: Mothers against decapentaplegic homolog 4 (Homo sapiens), Q13485 (parent)
chain: B1 chain
partner: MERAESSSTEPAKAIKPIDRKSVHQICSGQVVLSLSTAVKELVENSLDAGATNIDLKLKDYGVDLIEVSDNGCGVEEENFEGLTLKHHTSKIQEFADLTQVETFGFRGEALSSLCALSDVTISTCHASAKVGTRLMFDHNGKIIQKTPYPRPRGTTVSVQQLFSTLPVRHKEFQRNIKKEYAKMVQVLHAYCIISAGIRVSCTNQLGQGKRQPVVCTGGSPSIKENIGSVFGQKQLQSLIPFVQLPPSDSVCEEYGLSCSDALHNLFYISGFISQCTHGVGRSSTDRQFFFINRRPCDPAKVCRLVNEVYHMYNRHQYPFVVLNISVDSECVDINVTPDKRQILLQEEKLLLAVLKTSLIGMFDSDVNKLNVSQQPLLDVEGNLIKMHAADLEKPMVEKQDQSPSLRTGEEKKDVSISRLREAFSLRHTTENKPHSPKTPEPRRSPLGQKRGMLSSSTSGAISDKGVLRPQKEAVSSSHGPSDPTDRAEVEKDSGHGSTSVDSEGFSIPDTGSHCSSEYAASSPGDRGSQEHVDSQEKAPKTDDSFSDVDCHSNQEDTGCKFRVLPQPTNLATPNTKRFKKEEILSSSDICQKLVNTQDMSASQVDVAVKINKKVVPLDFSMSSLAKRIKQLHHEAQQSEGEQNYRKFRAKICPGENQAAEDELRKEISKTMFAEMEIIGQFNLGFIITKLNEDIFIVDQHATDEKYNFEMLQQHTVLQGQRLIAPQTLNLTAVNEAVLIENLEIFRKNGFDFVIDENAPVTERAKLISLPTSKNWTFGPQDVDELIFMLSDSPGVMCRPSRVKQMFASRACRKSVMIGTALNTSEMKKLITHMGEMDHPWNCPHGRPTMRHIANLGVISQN
B4: Mothers against decapentaplegic homolog 4 (Homo sapiens), Q13485 (parent)
chain: B1 chain
partner: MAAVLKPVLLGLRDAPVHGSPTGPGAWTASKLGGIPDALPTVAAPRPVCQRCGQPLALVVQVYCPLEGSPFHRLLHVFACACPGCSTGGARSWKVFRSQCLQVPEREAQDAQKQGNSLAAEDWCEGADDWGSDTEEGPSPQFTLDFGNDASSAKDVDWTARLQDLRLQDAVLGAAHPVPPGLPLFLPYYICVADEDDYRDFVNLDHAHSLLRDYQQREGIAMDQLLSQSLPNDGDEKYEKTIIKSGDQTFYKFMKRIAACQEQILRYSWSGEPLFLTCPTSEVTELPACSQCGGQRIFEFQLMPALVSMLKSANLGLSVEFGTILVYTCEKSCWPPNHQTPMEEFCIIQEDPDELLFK
B5: Mothers against decapentaplegic homolog 4 (Homo sapiens), Q13485 (parent)
chain: B1 chain
partner: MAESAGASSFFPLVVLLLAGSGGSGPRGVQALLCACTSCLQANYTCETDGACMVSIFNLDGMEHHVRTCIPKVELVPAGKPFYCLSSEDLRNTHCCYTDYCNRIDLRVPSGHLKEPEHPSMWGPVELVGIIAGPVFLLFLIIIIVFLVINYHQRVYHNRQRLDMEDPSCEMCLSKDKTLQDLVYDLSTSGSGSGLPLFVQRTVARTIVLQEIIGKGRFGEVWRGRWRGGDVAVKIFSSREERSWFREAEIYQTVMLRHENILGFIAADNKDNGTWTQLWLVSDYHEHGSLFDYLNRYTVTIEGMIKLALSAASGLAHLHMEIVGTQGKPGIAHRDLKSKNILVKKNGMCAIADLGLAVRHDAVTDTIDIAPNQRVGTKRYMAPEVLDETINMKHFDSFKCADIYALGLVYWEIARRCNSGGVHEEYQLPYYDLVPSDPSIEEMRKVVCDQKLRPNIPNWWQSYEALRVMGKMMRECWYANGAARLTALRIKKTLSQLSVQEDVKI
B6: Mothers against decapentaplegic homolog 4 (Homo sapiens), Q13485 (parent)
chain: B1 chain
partner: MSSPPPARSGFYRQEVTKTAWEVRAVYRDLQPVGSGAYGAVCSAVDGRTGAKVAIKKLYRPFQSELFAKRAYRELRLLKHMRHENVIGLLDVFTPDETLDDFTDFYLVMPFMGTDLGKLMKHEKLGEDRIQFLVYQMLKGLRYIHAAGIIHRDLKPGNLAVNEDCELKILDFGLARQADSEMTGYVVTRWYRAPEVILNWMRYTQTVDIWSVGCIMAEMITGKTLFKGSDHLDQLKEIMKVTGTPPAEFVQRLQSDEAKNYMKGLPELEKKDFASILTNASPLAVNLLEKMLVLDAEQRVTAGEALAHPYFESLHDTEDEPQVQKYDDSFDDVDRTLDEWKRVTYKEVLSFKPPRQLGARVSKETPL

Variants of: B1
Details: with stat4_human STAT4, Q14765
With R361H the “effect of a mutation on the interaction” value was “with no effect”.

Variants of: B1
Details: with stat4_human STAT4, Q14765
Remark: another data set of the same source
With R361C the “effect of a mutation on the interaction” value was “with no effect”.

Variants of: B1
Details: with stat4_human STAT4, Q14765
Remark: another data set of the same source
For G386D, the “effect of a mutation on the interaction” value was “with no effect”.

Variants of: B1
Details: with stat4_human STAT4, Q14765
Remark: another data set of the same source
For D351H, the “effect of a mutation on the interaction” value was “with no effect”.

Variants of: B2
Details: with sncap_human SNCAIP
With D351H the “effect of a mutation on the interaction” value was “with no effect”.

Variants of: B2
Details: with sncap_human SNCAIP
Remark: another data set of the same source
R361H was tested, and the “effect of a mutation on the interaction” value was “with no effect”.

Variants of: B2
Details: with sncap_human SNCAIP
Remark: another data set of the same source
R361C was tested, and the “effect of a mutation on the interaction” value was “with no effect”.

Variants of: B2
Details: with sncap_human SNCAIP
Remark: another data set of the same source
In the case of G386D, the “effect of a mutation on the interaction” value is reported as “with no effect”.

Variants of: B3
Details: with pms2_human PMS2, P54278
In the case of R361H, the “effect of a mutation on the interaction” value is reported as “with no effect”.

Variants of: B3
Details: with pms2_human PMS2, P54278
Remark: another data set of the same source
With R361C the “effect of a mutation on the interaction” value was “with no effect”.

Variants of: B3
Details: with pms2_human PMS2, P54278
Remark: another data set of the same source
In the case of G386D, the “effect of a mutation on the interaction” value is reported as “with no effect”.

Variants of: B3
Details: with pms2_human PMS2, P54278
Remark: another data set of the same source
D351H was tested, and the “effect of a mutation on the interaction” value was “with no effect”.

Variants of: B4
Details: with pdd2l_human PDCD2L
In the case of R361C, the “effect of a mutation on the interaction” value is reported as “with no effect”.

Variants of: B4
Details: with pdd2l_human PDCD2L
Remark: another data set of the same source
R361H was tested, and the “effect of a mutation on the interaction” value was “with no effect”.

Variants of: B4
Details: with pdd2l_human PDCD2L
Remark: another data set of the same source
In the case of D351H, the “effect of a mutation on the interaction” value is reported as “with no effect”.

Variants of: B4
Details: with pdd2l_human PDCD2L
Remark: another data set of the same source
For G386D, the “effect of a mutation on the interaction” value was “with no effect”.

Variants of: B5
Details: with acv1b_human ACVR1B
For R361C, the “effect of a mutation on the interaction” value was “with no effect”.

Variants of: B5
Details: with acv1b_human ACVR1B
Remark: another data set of the same source
R361H was tested, and the “effect of a mutation on the interaction” value was “with no effect”.

Variants of: B5
Details: with acv1b_human ACVR1B
Remark: another data set of the same source
G386D was tested, and the “effect of a mutation on the interaction” value was “with no effect”.

Variants of: B5
Details: with acv1b_human ACVR1B
Remark: another data set of the same source
G386D was tested, and the “effect of a mutation on the interaction” value was “increasing interaction strength”.

Variants of: B6
Details: with mk12_human MAPK12, P53778
R361H was tested, and the “effect of a mutation on the interaction” value was “with no effect”.

Variants of: B6
Details: with mk12_human MAPK12, P53778
Remark: another data set of the same source
R361C was tested, and the “effect of a mutation on the interaction” value was “with no effect”.

Variants of: B6
Details: with mk12_human MAPK12, P53778
Remark: another data set of the same source
With D351H the “effect of a mutation on the interaction” value was “with no effect”.
